Test results: the DeepSol protein solubility set

Test: soluble on expression in E. coli; label from the status in PepcDB or PDB records

Sequence | soluble on expression in E. coli
MKVWITGAGGMMGSHLAEMLLAAGHDVYATYCRPTIDPSDLQFNGAEVDITDWCSVYDSIATFRPDAVFHLAAQSYPAVSWARPVETLTTNMVGTAIVFEALRRVRPHAKIIVAGSSAEYGFVDPSEVPINERRELRPLHPYGVSKAATDMLAYQYHKSYGMHTVVARIFNCTGPRKVGDALSDFVRRCTWLEHHPEQSAIRVGNLKTKRTIVDVRDLNRALMLMLDKGEAGADYNVGGSIAYEMGDVLKQVIAACKRDDIVPEVDPALLRPTDEKIIYGDCSKLAAITGWQQEICLTQTIADMFDYWRSKSESALMV | not soluble
METGAGIGLYPLHRCKTIYLVRHAQGIHNVDGEKNYKAYMSHDYFDAELTQLGWKQVDSLRKHVHSSGLHKKIELVISSPLMRTLQTAVGVFGGEGYTDMSDVLPLMVANAGNSSRAAISSLNCPPVITEESCREHLGVHPCDQRRSISDYQFLFPAVDFSLIESEEDKLWKADVRETIEELAARGKKFLNWLWTRKEKEIAIVTHSGFLFHTLNALQNECHPDVKKEICGHFANCELRSMVIVDRSMLGSDSSVTDYPGKIPKGIDLPSDAVVDDNNIKVE | soluble
MGSDKIHHHHHHMDLEEQKKAVIEKLIREGYIKSKRVIDALLKVPREEFLPEHLKEYAYVDTPLEIGYGQTISAIHMVGMMCELLDLKPGMKVLEIGTGCGYHAAVTAEIVGEDGLVVSIERIPELAEKAERTLRKLGYDNVIVIVGDGTLGYEPLAPYDRIYTTAAGPKIPEPLIRQLKDGGKLLMPVGRYLQRLVLAEKRGDEIIIKDCGPVAFVPLVGKEGFQG | not soluble
MGSDKIHHHHHHMLTSVFGISIKYEAWNHQDSLPVYIAGSYDFHTAYIGNRRCIMLAPTEELATLPALKKQIVKIQQIDNVPVVFELTTVSNYRRKSLIENNIPFITDKQVFLPFIGTMLSDEKEPQKLTGKFVYSTQQLFLFYLYSKKKRLYTSEAGKVLPFTAMTLTRAVKQLETTDLFLVAKDGVNKFIESKYKRDELFEKAKVYLTTPVRKTGYIDKTQVTENMVFAGETALSEKTMLNPSRVVTYAISEKDYDKSLLTDELIDPDKQVRLELWAYNPKQFSEDNSADDISLVLSFKDTNDERIEEAVDELQERRLHE | not soluble
MDAKETSATDLKRPREEDDNGGAATMETENGDQKKEPACFSTVIPGWFSEMSPMWPGEAHSLKVEKVLFQGKSDYQDVIVFQSATYGKVLVLDGVIQLTERDECAYQEMITHLPLCSIPNPKKVLVIGGGDGGVLREVARHASIEQIDMCEIDKMVVDVSKQFFPDVAIGYEDPRVNLVIGDGVAFLKNAAEGSYDAVIVDSSDPIGPAKELFEKPFFQSVARALRPGGVVCTQAESLWLHMDIIEDIVSNCREIFKGSVNYAWTSVPTYPSGVIGFMLCSTEGPDVDFKHPLNPIDESSSKSNGPLKFYNAEIHSAAFCLPSFAKKVIESKAN | soluble
MGSDKIHHHHHHMSGFSPELIDYLEGKISFEEFERRREERKTREKKSLQEKGKLSAEENPDDSEVPSSSGINSTKSQDKDVSEGETSDGVRKSVHKVFASMLGENEDDEEEEEEEEEEEEEEETPEQPTAGDVFVLEMVLNRETKKMMKEKRPRSKLPRALRGLMGEANIRFARGEREEAILMCMEIIRQAPLAYEPFSTLAMIYEDQGDMEKSLQFELIAAHLNPSDTEEWVRLAEMSLEQDNIKQAIFCYTKALKYEPTNVRYLWERSSLYEQMGDHKMAMDGYRRILNLLSPSDGERFMQLARDMAKSYYEANDVTSAINIIDEAFSKHQGLVSMEDVNIAAELYISNKQYDKALEIITDFSGIVLEKKTSEEGTSEENKAPENVTCTIPDGVPIDITVKLMVCLVHLNILEPLNPLLTTLVEQNPEDMGDLYLDVAEAFLDVGEYNSALPLLSALVCSERYNLAVVWLRHAECLKALGYMERAAESYGKVVDLAPLHLDARISLSTLQQQLGQPEKALEALEPMYDPDTLAQDANAAQQELKLLLHRSTLLFSQGKMYGYVDTLLTMLAMLLKVAMNRAQVCLISSSKSGERHLYLIKVSRDKISDSNDQESANCDAKAIFAVLTSVLTKDDWWNLLLKAIYSLCDLSRFQEAELLVDSSLEYYSFYDDRQKRKELEYFGLSAAILDKNFRKAYNYIRIMVMENVNKPQLWNIFNQVTMHSQDVRHHRFCLRLMLKNPENHALCVLNGHNAFVSGSFKHALGQYVQAFRTHPDEPLYSFCIGLTFIHMASQKYVLRRHALIVQGFSFLNRYLSLRGPCQESFYNLGRGLHQLGLIHLAIHYYQKALELPPLVVEGIELDQLDLRRDIAYNLSLIYQSSGNTGMAQTLLYTYCSI | not soluble
MGALERFGVDFITVDQGNGQWDIQAIEINLRKGGTTHPFMTLKLLTNGRYELSTGLFYSQQGRPKYYIATDNLQKDRYRGLLPNDLMDIIAHHRLHFDSCTETGTVFHLMGCLSQFGKLGLTSIGDSPQQAEDIYNKVVKVLDEETRVNNKQFPLFSDYTFPNLEHHHHHH | not soluble
SLLPQAVTQFEELVGMAEALLKGGGTMSTSASTLWRATNNSSPDSFASTCSNSNSNSSSPVSLKPEEEHQTDEKQFQIEKWQIARCNKSKPQKFINDLMQVLYTNEYMATHSLTGAKSSTSRDKAVKPAMNQNEVQEIIGVTKQLFPNTDDVSIRRMIGQKLNNCTKKPNLSKNLNSQDIK | soluble
MAHHHHHHMKLEEVKDIQKIERIGAHSHIRGLGLNDCLDARYCSEGMIGQMSARKAAGIVLRMIKEGRISGRAILLAGQPGTGKTAIAMGIAKALGEDTPFTHISGSEVYSLEMSKTEALTQAFRRSIGVRVKEESEVIEGEVVEIEIEKFNERDINNKNKKLGKMILKTTEMETLYDLGSKMIEALQKENITAGDVICIDKGTGKITKIGKSFARSKDYDAMDPNTLFVQCPEGELQKRKEVVHTVTLHDIDAINSRTQGFLALFSGDTGEIKNEIREHIDMKINEWQEDEKAEIVPGVLFIDEVHMLDIECFSYLNRALESEQSPIVIMATNRGITHIRGTDYKAPHGIPLDLLDRTLIIPTYPYKHQDILKILEQRAEEEDVDIDEYAKELLCKIASESSLRYALHLITLANLVSKKRKATEVTVQDVRRVYNLFIDVKRSTQYLIEYQNEFMFSELPKEELSVKEEDSSEEKRELHEKNSENSSTSN | soluble
SLQTNKASTGLKTDQSFNNSLSESVKLKEIADIYPTNTNFLTGIGIVAGLAGKGDSIKQKDLIIKILEENNIINEIGSNNIESKNIALVNVSLQVKGNTIKGSKHKACVASILDSKDLTNGILLKTNLKNKEGEIIAIASGITQPNNKLKGSGYTIDSVIINENQNINHSYNIILKKGNYTLINRIHKILTSKKINNKIKSDSTIEIEAKNISLLEEIENIKIETNPKILIDKKNGIILASENAKIGTFTFSIEKDNQNIFLSKNNKTTIQVNSMKLNEFILKNSNNLSNKELIQIIQAAQKINKLNGELILEEIDGNQN | soluble
MLWNVDLLKTLNIMYNKILFMNNSFFGRFKKNDNQVIEEQPPVWEDRIFWVETLQKIAFPVLNNLKKESLKKNMSIESFSSESNKFAHLGAFSNVFNGIAPWLELGPDESEEGKIREKYIVLTLKAISNAVNPNSKDYILFTEPKQSLMSMALFAQGLLRSKTQIWNNLPMDVQARVIYELKNTRIIAPFENHWLLFTSMIEATLLEFTGECDRERLTYSIRKFRDEWYLGDAIYADGPEFDVNYYNSIFIHPMLNDILKVMRKYGINEGELLDVQLMRSSRYASQLERIISPEGTYPLLGKSMAYRTGIFHLLAQAALFKILPRNMETSQVRSALTKVLRTQFGGHQNFDNKGWLTIGLNGCQAEIAEKDINTGSLYGCCAIFLPLGLSFNDSFWVGPFEEWTTLKAWNGNPVEPDQSIDFLEHHHHHH | not soluble
